Test results reported in PMC5663475, “SAV1 promotes Hippo kinase activation through antagonizing the PP2A phosphatase STRIPAK” (eLife, 2017).
Residue numbers refer to the chain shown, from its start. In names and notes the source's numbering stands. Values belong to the molecule of their own block, whether it stands above or below them. Non-standard residues stand in square brackets, D forms with d. No end group written: not given here. pT = C[C@@H](OP(=O)(O)O)[C@H](N)C(=O)O

Experiments:
MCF10A cells = assay: Immunoblot of Hippo pathway phosphorylation after latrunculin B treatment; type: cell-based, human; details: LatB 1 μg/ml, 1 hr
Description: 293FT cells (Thermo Scientific, catalogue #R70007; not independently authenticated) were cultured in DMEM supplemented with 10% fetal bovine serum, 2 mM L-glutamine and 1% penicillin/streptomycin. MCF10A cells (ATCC, catalogue #CRL-10317; not independently authenticated) were cultured in DMEM/F12 containing 5% horse serum, 20 ng/ml EGF, 0.5 μg/ml hydrocortisone, 100 ng/ml cholera toxin, 10 μg/ml insulin and 1% penicillin/streptomycin. All cells were incubated at 37°C in a humidified 5% CO2 atmosphere. All cell lines were checked by 4’,6-diamidino-2-phenylindole (DAPI) staining to ascertain that they were free of mycoplasma contamination. Transient transfection of 293FT cells was performed with Lipojet (Signagen). Cells were collected for further experiments after 24 hr. siRNA transfection was performed with Lipofectamine RNAiMAX (Invitrogen, Waltham, MA) according to manufacturer’s instructions. The following siRNAs were synthesized by Dharmacon and used in this study: siSLMAP #1, […]dTdT; siSLMAP #2, […]dTdT; siSTRIP1, […]dTdT.
Rabbit polyclonal MST2 phospho-T336 antibody was raised against the MST2 phospho-peptide with the sequence of ESVGpTMRATC at an on-campus facility. Generation of the MST2 phospho-T378 antibody was described previously ([Ni et al., 2015]). […] For immunoblotting, cell lysates and immunoprecipitates were analyzed by standard immunoblotting. The membranes were scanned and band intensities were quantified by the Odyssey Infrared Imaging System (LI-COR). […] We quantified phospho- and total protein bands in a set of three independent experiments. […] The ratios of normalized phospho-proteins versus normalized total proteins were calculated and plotted. […]

[1] = molecular target: T1, SLMAP FHA (residues 1–140) (human, UniProt Q14BN4 1-140); assay: ITC; MicroCal iTC200, 20 °C; 50 µM protein in the cell titrated with 500 µM phospho-peptide; 20 mM Tris pH 8.0, 50 mM NaCl (5% DMSO for pT325-MST2 320-329); A + B <-> AB model; details: both partners purified
T1 construct: SLMAP, human, FHA domain, residues 1-140; also called SLMAP FHA domain; apo-SLMAP FHA; source: E. coli BL21 (DE3)-T1R, purified (glutathione-Sepharose, TEV cleavage, Superdex 75); not shown: GST, N-terminal, cleaved
T1 sequence (looked up): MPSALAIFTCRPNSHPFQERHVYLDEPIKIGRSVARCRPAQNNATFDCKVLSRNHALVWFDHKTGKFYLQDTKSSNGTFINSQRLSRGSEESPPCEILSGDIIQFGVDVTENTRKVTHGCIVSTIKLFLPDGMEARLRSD

MST2 SARAH = assay: In vitro pull-down of 35S-labeled SAV1 SARAH by GST-MST2 SARAH; type: binding, human; details: GST-MST2 SARAH pull-down of in vitro translated 35S-labeled Myc-SAV1 SARAH (residues 321–383), SDS-PAGE, autoradiography
Description: To assay the heterodimerization of SARAH domains between MST2 and SAV1, Myc-tagged SAV1 SARAH (residues 321–383) and the corresponding mutants were in vitro translated in reticulocyte lysate in the presence of ^35S-methionine according to the manufacturer’s protocol (Pierce). Purified GST-MST2 SARAH (residues 430–491) fusion protein was bound to glutathione-Sepharose beads and incubated with ^35S-labeled SAV1 SARAH WT and mutants. The beads were washed three times with TBS containing 0.05% (v/v) Tween. The proteins retained on the beads were analyzed by SDS-PAGE followed by autoradiography.

MST2 = assay: MST2-SAV1 autophosphorylation (pT180); type: biochemical, human; details: 2.5 µM MST2-SAV1 complex, dephosphorylated by 0.5 µM PP2A A-C, then 5 µM okadaic acid; 2 mM ATP, anti-pT180 blot; at least two independent experiments
Description: For assaying MST2-SAV1 autophosphorylation, 2.5 µM MST2-SAV1-ΔN198 or MST2-SAV1-ΔN268 was dephosphorylated by 0.5 µM PP2A A-C core complex for 30 min at room temperature. Okadaic acid was then added to a final concentration of 5 µM and the reaction mixture was incubated on ice for another 30 min. The reaction mixture was diluted by a ratio of 1:5 at room temperature with a kinase reaction buffer containing 50 mM Tris (pH 7.5), 150 mM NaCl, 5 mM MgCl2, 2 mM ATP, and 1 mM DTT. At different time intervals, autophosphorylation was terminated by adding 2X SDS loading buffer and boiling for 5 min in 100 °C water bath. All samples were separated by SDS-PAGE and blotted by a specific antibody against pT180 of MST2.

MOB1^33-216 (human) = MOB1^33-216 (human) (UniProt Q9H8S9); assay: ITC; MicroCal iTC200, 20 °C; 50 µM protein in the cell titrated with 500 µM phospho-peptide; 20 mM Tris pH 8.0, 50 mM NaCl (5% DMSO for pT325-MST2 320-329); A + B <-> AB model
SLMAP FHA/R32A = molecular target: T2, SLMAP FHA/R32A (human, UniProt Q14BN4 1-140, R32A); assay: as above; details: both partners purified
T2 construct: SLMAP, human, FHA domain, residues 1-140, R32A; also called SLMAP FHA/R32A mutant; source: E. coli BL21 (DE3)-T1R, purified (glutathione-Sepharose, TEV cleavage, Superdex 75); not shown: GST, N-terminal, cleaved
T2 sequence (looked up): T1 sequence (looked up) with R32A

Molecule: C/C1=C/C(=O)O[C@@H]2C[C@@H](CC[C@H](C)/C=C\CC1)O[C@@](O)([C@@H]1CSC(=O)N1)C2 [LatB, Latrunculin B]
MOB1 T35 phosphorylation (MCF10A cells): induced
MST1/2 T-loop phosphorylation (MCF10A cells): induced
downstream phosphorylation of LATS1/2 and YAP (MCF10A cells): induced

B4: L365A: SAV1 SARAH (residues 321–383) mutant (protein, UniProt Q9H4B6 321-383, looked up, variant L365A)
chain: ILKWELFQLADLDTYQGMLKLLFMKELEQIVKMYEAYRQALLTEAENRKQRQQWYAQQHGKNF
modifications: SARAH domain
notes: SAV1 SARAH (residues 321–383) mutant
binding of SAV1 SARAH mutant to MST2 (MST2 SARAH): completely lost the binding to MST2

B5: I350A: SAV1 SARAH (residues 321–383) mutant (protein, UniProt Q9H4B6 321-383, looked up, variant I350A)
chain: B4 chain with I30A, A45L
modifications: SARAH domain
notes: as for B4
binding of SAV1 SARAH mutant to MST2 (MST2 SARAH): completely lost the binding to MST2

B7: L361A: SAV1 SARAH (residues 321–383) mutant (protein, UniProt Q9H4B6 321-383, looked up, variant L361A)
chain: B4 chain with L41A, A45L
modifications: SARAH domain
notes: as for B4
binding of SAV1 SARAH mutant to MST2 (MST2 SARAH): completely lost the binding to MST2

B8: SAV1 ∆N268: SAV1 SARAH alone (protein, UniProt Q9H4B6 269-383, looked up, fragment)
chain: SVPRYDQPPPVTYQPQQTERNQSLLVPANPYHTAEIPDWLQVYARAPVKYDHILKWELFQLADLDTYQGMLKLLFMKELEQIVKMYEAYRQALLTELENRKQRQQWYAQQHGKNF
MST2 activation (T180 autophosphorylation) in vitro (MST2): blocked MST2 activation in vitro

B10: pT378-MST2^373-382 (peptide)
peptide: EEEDG[pT]MKRN
notes: MST2, human, linker residues 373-382; also called pMST2; source: synthetic peptide
dH (MOB1^33-216 (human)): -4 kcal/mol
Kd [1]: 160 nM
dH [1]: -9 kcal/mol
Kd (SLMAP FHA/R32A): 18800 nM
dH (SLMAP FHA/R32A): -6.7 kcal/mol

The remaining lines, values ahead:

Kd [1]: 1140 nM
dH [1]: -8.2 kcal/mol
B1: pT336-MST2^331-340 (peptide)
peptide: VESVG[pT]MRAT
notes: MST2, human, linker residues 331-340; source: synthetic peptide

binding of SAV1 SARAH mutant to MST2 (MST2 SARAH): completely lost the binding to MST2
B2: SAV1 E346A: SAV1 SARAH (residues 321–383) mutant (protein)
chain: B4 chain with E26A, A45L
modifications: not fully specified (N-terminus); also: 35S-methionine labelled, Myc tag, end not given here
notes: as for B4

binding of SAV1 SARAH mutant to MST2 (MST2 SARAH): completely lost the binding to MST2
B3: R368A: SAV1 SARAH (residues 321–383) mutant (protein, UniProt Q9H4B6 321-383, looked up, variant R368A)
chain: B4 chain with A45L, R48A
modifications: SARAH domain
notes: as for B4

binding of SAV1 SARAH mutant to MST2 (MST2 SARAH): completely lost the binding to MST2
B6: Y357A: SAV1 SARAH (residues 321–383) mutant (protein, UniProt Q9H4B6 321-383, looked up, variant Y357A)
chain: B4 chain with Y37A, A45L
modifications: SARAH domain
notes: as for B4

dH (MOB1^33-216 (human)): -13.5 kcal/mol
Kd [1]: 393 nM
dH [1]: -9.5 kcal/mol
B9: pT378-MST2^371-401 (peptide)
peptide: DEEEEDG[pT]MKRNATSPQVQRPSFMDYFDKQD
notes: MST2, human, linker residues 371-401; source: synthetic peptide

Kd [1]: 392 nM
dH [1]: -10.3 kcal/mol
B11: pT325-MST2^320-329 (peptide)
peptide: ELDSH[pT]MVKT
notes: MST2, human, linker residues 320-329; source: synthetic peptide
